Patent US20210206856A1 (PANDION OPERATIONS, published 2021)

T1: mouse MAdCAM expressed on cells (mouse, UniProt Q61826 22-405)
T1 construct: whole, on cells
T1 sequence (looked up): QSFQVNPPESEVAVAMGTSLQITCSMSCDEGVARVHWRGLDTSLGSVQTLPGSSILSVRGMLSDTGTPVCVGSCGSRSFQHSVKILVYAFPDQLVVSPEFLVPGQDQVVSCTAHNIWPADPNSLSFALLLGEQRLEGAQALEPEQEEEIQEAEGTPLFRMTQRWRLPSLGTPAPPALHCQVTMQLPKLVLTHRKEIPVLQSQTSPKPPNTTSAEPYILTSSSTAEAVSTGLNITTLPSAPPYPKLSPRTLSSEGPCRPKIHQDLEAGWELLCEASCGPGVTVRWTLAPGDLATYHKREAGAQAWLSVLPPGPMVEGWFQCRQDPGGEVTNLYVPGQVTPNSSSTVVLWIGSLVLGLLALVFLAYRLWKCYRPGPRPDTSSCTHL

T2: human MAdCAM expressed on cells (human, UniProt Q13477 19-382)
T2 construct: whole, on cells; also called MADCAM1
T2 sequence (looked up): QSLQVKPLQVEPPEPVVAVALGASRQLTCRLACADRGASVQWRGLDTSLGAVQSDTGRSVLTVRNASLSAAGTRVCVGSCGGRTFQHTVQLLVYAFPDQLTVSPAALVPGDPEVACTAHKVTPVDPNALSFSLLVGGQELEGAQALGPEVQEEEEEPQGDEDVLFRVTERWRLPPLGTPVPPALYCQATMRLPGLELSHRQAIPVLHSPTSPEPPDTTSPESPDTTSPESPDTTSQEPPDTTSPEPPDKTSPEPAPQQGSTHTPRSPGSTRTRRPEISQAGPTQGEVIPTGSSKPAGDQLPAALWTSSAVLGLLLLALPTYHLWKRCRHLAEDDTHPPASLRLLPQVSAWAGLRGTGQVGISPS


Experiments:
[1] = target: T1, mouse MAdCAM expressed on cells; assay: cell binding
[2] = target: T2, human MAdCAM expressed on cells; assay: cell binding

| Binder | binding result [1] | binding result [2] |
| --- | --- | --- |
| MAdCAM Antibody Table 1 Clone 43 (scFv) scFv: EVQLLESGGGLVQPGGSLRLSCAASGFTFDDFAMHWVRQAPGKGLEWVSGISGNGDSRYYADSVKGRFTISRDNSKNTLYLQMNSLRAEDTAVYYCARDASYGGNYGMDVWGQGTTVTVSSGGGGSGGGGSGGGGSGGGGSDIQMTQSPSSLSASVGDRVTITCQASQDIRNYLNWYQQKPGKAPKLLIYKASTLESGVPSRFSGSGSGTDFTLTISSLQPEDFATYYCQQANSFPLTFGPGTKVDIK | no binding | binds |
| MAdCAM Antibody Table 1 Clone 56 (scFv) scFv: EVQLLESGGGLVQPGGSLRLSCAASGFTFDDYAMHWVRQAPGKGLEWVSAISGGGEDTYYADSVKGRFTISRDNSKNTLYLQMNSLRAEDTAVYYCARDASYGGNYGMDVWGQGTTVTVSSGGGGSGGGGSGGGGSGGGGSDIQMTQSPSSLSASVGDRVTITCQASQDIRNYLNWYQQKPGKAPKLLIYKASSLESGVPSRFSGSGSGTDFTLTISSLQPEDFATYYCQQANSYPVTFGGGTKVEIK | no binding | binds |
| MAdCAM Antibody Table 1 Clone 44 (scFv) scFv: EVQLVESGGGLVKPGGSLRLSCAASGFTFSSYWMSWVRQAPGKGLEWVSAIGTGGGTYYAAPVKGRFTISRDDSKNTLYLQMNSLKTEDTAVYYCAREWLVPYYGMDVWGQGTTVTVSSGGGGSGGGGSGGGGSGGGGSDIQMTQSPSSLSASVGDRVTITCRASQSISRWLAWYQQKPGKAPKLLIYGASNLQSGVPSRFSGSGSGTDFTLTISSLQPEDFATYYCQQSYSTPWTFGQGTKVEIK | no binding | binds |
| MAdCAM Antibody Table 1 Clone 45 (scFv) scFv: EVQLLESGGGLVQPGGSLRLSCAASGFSVSSNYMSWVRQAPGKGLEWVAGISYDGSSKPYADSVKGRFTISRDNSKNTLYLQMNSLRAEDTAVYYCARSRGIAARPLQHWGQGTLVTVSSGGGGSGGGGSGGGGSGGGGSDIVMTQSPDSLAVSLGERATINCKSSQSVLYSSNNKNYLAWYQQKPGQPPKLLIYWASTRQSGVPDRFSGSGSGTDFTLTISSLQAEDVAVYYCHQYYGHPPTFGGGTKVEIK | no binding | binds |
| MAdCAM Antibody Table 1 Clone 46 (scFv) scFv: EVQLLESGGGLVQPGGSLRLSCAASGFSVSSNYMSWVRQAPGKGLEWVAGISYDGSSKPYADSVKGRFTISRDNSKNTLYLQMNSLRAEDTAVYYCARSRGIAARPLQHWGQGTLVTVSSGGGGSGGGGSGGGGSGGGGSDIVMTQSPDSLAVSLGERATINCKSSQSVLYSSNNKNYLAWYQQKPGQPPKLLIYQASTRQSGVPDRFSGSGSGTDFTLTISSLQAEDVAVYYCHQYYGHPPTFGGGTKVEIK | no binding | binds |
| MAdCAM Antibody Table 1 Clone 47 (scFv) scFv: EVQLLESGGGLVQPGGSLRLSCAASGFSFSDYGMHWVRQAPGKGLEWVSAISGSGGSTYYADSVKGRFTISRDNSKNTLYLQMNSLRAEDTAVYYCARDGGWQPAAILDYWGQGTLVTVSSGGGGSGGGGSGGGGSGGGGSDIQMTQSPSSLSASVGDRVTITCRASQGISNNLNWYQQKPGKAPKLLIYDASNLETGVPSRFSGSGSGTDFTLTISSLQPEDFATYYCQQSYSTPLTFGGGTKVEIK | no binding | binds |
| MAdCAM Antibody Table 1 Clone 48 (scFv) scFv: EVQLLESGGGLVQPGGSLRLSCAASGFTFSDHGMHWVRQAPGKGLEWVSVIYGGESTYYADSVKGRFTISRDNSKNTLYLQMNSLRAEDTAVYYCARDPAVAGGGIFDYWGQGTLVTVSSGGGGSGGGGSGGGGSGGGGSDIQMTQSPSSLSASVGDRVTITCRASQGISNYLAWYQQKPGKAPKLLIYDASNLETGVPSRFSGSGSGTDFTLTISSLQPEDFATYYCQQSYSTCYTFGQGTKLEIK | no binding | binds |
| MAdCAM Antibody Table 1 Clone 59 (scFv) scFv: EVQLLESGGGLVQPGGSLRLSCAASGFTFSDFWMHWVRQAPGKGLEWISYISGDSGYTNYADSVKGRFTISRDNSKNTLYLQMNSLRAEDTAVYYCARDRPYYYYMDVWGKGTTVTVSSGGGGSGGGGSGGGGSGGGGSDIQMTQSPSSLSASVGDRVTITCRASQSVSRSLAWYQQKPGKAPKLLIYAASSLQSGVPSRFSGSGSGTDFTLTISSLQPEDFATYYCQQYKSYPVTFGQGTKVEIK | binds | binds |

Next, values leading:

| binding result [1] | binding result [2] | Binder |
| --- | --- | --- |
| no binding | binds | MAdCAM Antibody Table 1 Clone 49 (scFv) scFv: QVQLVQSGAEVKKPGASVKVSCKASGDTFTGYYIHWVRQAPGQGLEWMGWINPNSGGTNYAQKFQGRVTMTRDTSTSTVYMELSSLRSEDTAVYYCARSGLWLGSYYGMDVWGQGTLVTVSSGGGGSGGGGSGGGGSGGGGSDIQMTQSPSSLSASVGDRVTITCRASQTISIWLAWYQQKPGKAPKLLIYDASTLQSGVPSRFSGSGSGTDFTLTISSLQPEDFATYYCQQYSSYPLTFGQGTKVEIK |
| no binding | binds | MAdCAM Antibody Table 1 Clone 50 (scFv) scFv: QVQLVQSGAEVKKPGASVKVSCKASGYTFTSYDINWVRQAPGQGLEWMGWINPNSGTTGYAQKFQGRVTMTRDTSTSTVYMELSSLRSEDTAVYYCARSPYYYYGMDVWGQGTTVTVSSGGGGSGGGGSGGGGSGGGGSDIQMTQSPSSLSASVGDRVTITCRASHFISRWVAWYQQKPGKAPKLLIYAASTLQSGVPSRFSGSGSGTDFTLTISSLQPEDFATYYCQQSYSGISFGPGTKVDIK |
| no binding | binds | MAdCAM Antibody Table 1 Clone 51 (scFv) scFv: EVQLLESGGGLVQPGGSLRLSCAASGFTFNNYGMNWVRQAPGKGLEWVSRINSDGSSTSYADSVKGRFTISRDNSKNTLYLQMNSLRAEDTAVYYCARGAYYYYYMDVWGQGTLVTVSSGGGGSGGGGSGGGGSGGGGSEIVMTQSPATLSVSPGERATLSCRASQSVSGSYLAWYQQKPGQAPRLLIYATSSRASGIPARFSGSGSGTEFTLTISSLQSEDFAVYYCQQYYSGLTFGQGTKVEIK |
| no binding | binds | MAdCAM Antibody Table 1 Clone 52 (scFv) scFv: EVQLLESGGGLVQPGGSLRLSCAASGFTFSNSDMNWVRQAPGKGLEWVAHIWNDGSQKYYADSVKGRFTISRDNSKNTLYLQMNSLRAEDTAVYYCARDRTDPGYSSAMDVWGQGTTVTVSSGGGGSGGGGSGGGGSGGGGSDIQMTQSPSSLSASVGDRVTITCRASQDIRNYLGWYQQKPGKAPKLLIYDASSLETGVPSRFSGSGSGTDFTLTISSLQPEDFATYYCQQATSLPLTFGGGTKVEIK |
| no binding | binds | MAdCAM Antibody Table 1 Clone 53 (scFv) scFv: QVQLVQSGAEVKKPGASVKVSCKASGYTFTSYDINWVRQAPGQGLEWMGWMNPNSGNTGYAQKFQGRVTMTRDTSTSTVYMELSSLRSEDTAVYYCAKDSDYSNLLWDYWGQGTLVTVSSGGGGSGGGGSGGGGSGGGGSDIQMTQSPSSLSASVGDRVTITCRASQDITNDLGWYQQKPGKAPKLLIYQASSLESGVPSRFSGSGSGTDFTLTISSLQPEDFATYYCQQSYTIPLTFGQGTKVEIK |
| no binding | binds | MAdCAM Antibody Table 1 Clone 54 (scFv) scFv: EVQLLESGGGLVQPGGSLRLSCAASGFTFGDYAMSWVRQAPGKGLEWVAVVSYDGTNKYYADSVKGRFTISRDNSKNTLYLQMNSLRAEDTAVYYCAKDICSSTSCYFDLWGRGTLVTVSSGGGGSGGGGSGGGGSGGGGSDIQMTQSPSSLSASVGDRVTITCRASQNINNYVNWYQQKPGKAPKLLIYDASNLETGVPSRFSGSGSGTDFTLTISSLQPEDFATYYCQQANSFPPTFGQGTRLEIK |
| no binding | binds | MAdCAM Antibody Table 1 Clone 55 (scFv) scFv: QVQLVQSGAEVKKPGASVKVSCKASGYTFTSYYMHWVRQAPGQGLEWMGIIDPSGGSTSYAQKFQGRVTMTRDTSTSTVYMELSSLRSEDTAVYYCAREEWSSGGVGYFDYWGQGTLVTVSSGGGGSGGGGSGGGGSGGGGSDIQMTQSPSSLSASVGDRVTITCRASQGISSYLAWYQQKPGKAPKLLIYATSSLQTGVPSRFSGSGSGTDFTLTISSLQPEDFATYYCQQTYSIPITFGQGTRLEIK |
| no binding | binds | MAdCAM Antibody Table 1 Clone 57 (scFv) scFv: QVQLVQSGAEVKKPGASVKVSCKASGYTFTSYYMHWVRQAPGQGLEWMGIINPSGGSTSYAQKFQGRVTMTRDTSTSTVYMELSSLRSEDTAVYYCARDSVAGTGGRYYGMDVWGQGTLVTVSSGGGGSGGGGSGGGGSGGGGSDIQMTQSPSSLSASVGDRVTITCRASQGISNYFAWYQQKPGKAPKLLIYAASSLQGGVPSRFSGSGSGTDFTLTISSLQPEDFATYYCQQSYSLPYTFGQGTKLEIK |
| no binding | binds | MAdCAM Antibody Table 1 Clone 58 (scFv) scFv: QVQLVQSGAEVKKPGASVKVSCKASGYTFTGYYMHWVRQAPGQGLEWMGIINPSGGNTKYAQKFQGRVTMTRDTSTSTVYMELSSLRSEDTAVYYCTTADYYYYMDVWGKGTTVTVSSGGGGSGGGGSGGGGSGGGGSDIQMTQSPSSLSASVGDRVTITCRASQGISNYLAWYQQKPGKAPKLLIYAASSLQSGVPSRFSGSGSGTDFTLTISSLQPEDFATYYCQQYYSNADFGQGTKVEIK |
